Columns and labels:
human PD-L1-Fc protein [1] = target: T1, human PD-L1-Fc protein (human, UniProt Q9NZQ7 19-238); experiment: receptor blocking ELISA: coated human PD-L1-Fc, blocked ligand biotin-labeled human PD-1-Fc (Bio-PD1), OD 450nm; upper right panel (with Hu67F3G7-3)
T1 construct: coating antigen of the ELISAs; also called rhPD-L1-Fc; not shown: Fc
Method: (§1) Briefly, microtiter plates were coated with human PD-L1-Fc protein at 0.5 μg/ml in PBS, 100 μl/well at 4° C. overnight, then blocked with 150 μl/well of 1% BSA at 37° C. for 2 hours. […] The plates were washed with PBS/Tween and then incubated with Streptavidin-HRP for 10 mins at 37° C. After washing, the plates were developed with TMB substrate and analyzed by spectrophotometer at OD 450 nm.

human PD-L1-Fc protein [2] = target: T1, human PD-L1-Fc protein; experiment: receptor blocking ELISA: coated human PD-L1-Fc, blocked ligand biotin-labeled human CD80-Fc (Bio-CD80), OD 450nm; panel with Hu67F3G7-22 [cont'd]
Method: as §1

human PD-L1-Fc protein [3] = target: T1, human PD-L1-Fc protein; experiment: competition ELISA, coated human PD-L1-Fc, biotin-labeled human PD-1-Fc as competitor
Method: as §1, with “BSA.” for “BSA at 37° C. for 2 hours.”

[4] = target: T2, human PD-L1-his tag protein (human, UniProt Q9NZQ7 19-238); experiment: SPR (Biacore T200), mAb captured on Protein A chip, PD-L1-his injected
T2 construct: also called human PD-L1-His protein; recombinant PD-L1 protein; not shown: his tag
Method: A serial dilution of human PD-L1-his tag protein was injected over captured antibody for 2 mins at a flow rate of 30 μl/min. The antigen was allowed to dissociate for 480-1500 s. All the experiment were carried out on a Biacore T200. Data analysis was carried out using Biacore T200 evaluation software.

human PD-L1-Fc protein [5] = target: T1, human PD-L1-Fc protein; experiment: receptor blocking ELISA: coated human PD-L1-Fc, blocked ligand biotin-labeled human CD80-Fc (Bio-CD80), OD 450nm; middle left panel (with Hu67F3G7-5)
Method: as §1

human PD-L1-Fc protein [6] = target: T1, human PD-L1-Fc protein; experiment: ELISA, antibody titrated on coated human PD-L1-Fc, OD 450nm; lower right panel (with Hu67F3G7-19 to -22)
Method: (§2) To evaluate antigen binding activity, the humanized antibodies were subjected to ELISA test. Briefly, microtiter plates were coated with human PD-L1-Fc protein at 0.5 μg/ml in PBS, 100 μl/well at 4° C. overnight, then blocked with 200 μl/well of 1% BSA. Three-fold dilutions of humanized antibodies starting from 10 μg/ml were added to each well and incubated for 1 hour at 37° C. The plates were washed with PBS/Tween and then incubated with mouse-anti-human IgG Fab antibody conjugated with Horse Radish Peroxidase (HRP) for 1 hour at 37° C. After washing, the plates were developed with TMB substrate and analyzed by spectrophotometer at OD 450 nm.

[7] = target: T3, human PD-L1 over-expressed on CHOK1 cells (human, UniProt Q9NZQ7 19-290); experiment: flow cytometry on PDL1-CHOK1 cells
T3 construct: whole, on cells; also called PDL1-CHOK1 cells
Method: After washing by PBS, Alexa Fluor® 647 AffiniPure Goat Anti-Human IgG (H+L) was added to each well and incubated at 4° C. for 30 mins. Samples were washed twice with FACS buffer. The mean florescence intensity (MFI) of Alexa Fluor® 647 was evaluated by FACSCanto.

human PD-L1-Fc protein [8] = target: T1, human PD-L1-Fc protein; experiment: receptor blocking ELISA: coated human PD-L1-Fc, blocked ligand biotin-labeled human PD-1-Fc (Bio-PD1), OD 450nm; panel with Hu67F3G7-22 [cont'd]
Method: as §1

[9] = target: T3, human PD-L1 over-expressed on CHOK1 …; experiment: flow cytometry (MFI) on PDL1-CHOK1 cells; upper right panel (with the Hu67F3G7 antibodies)
Method: To evaluate the antigen binding property, the humanized antibodies were analyzed for their binding to PD-L1 overexpressed on mammalian cells by FACS. Briefly, PDL1-CHOK1 cells were firstly incubated with 3-fold serious diluted humanized antibodies starting at 15 μg/ml at 4° C. for 40 mins. After washed by PBS, the Alexa Fluor® 647 AffiniPure Goat Anti-Human IgG (H+L) antibody was added to each well and incubated at 4° C. for 30 mins. The MFI of Alexa Fluor® 647 was evaluated by FACSCanto.

human PD-L1-Fc protein [10] = target: T1, human PD-L1-Fc protein; experiment: ELISA, coated human PD-L1 (PD-L1-Fc per paragraph 110)
Method: as §1, with “1% BSA.” for “1% BSA at 37° C. for 2 hours.”, “with Mouse-anti-human IgG Fab antibody conjugated with Horse Radish Peroxidase (HRP)” for “with Streptavidin-HRP”, “for 30” for “for 10”
Briefly, microtiter plates were coated with human, mouse, rat and cynomolgus PD-L1 proteins at 0.5 μg/ml in PBS, 100 μl/well at 4° C. overnight, then blocked with 150 μl/well of 1% BSA. Three-fold dilutions of chimeric antibodies starting from 10 μg/ml were added to each well and incubated for 1 hour at 37° C. The plates were washed with PBS/Tween and then incubate with mouse-anti-human IgG Fab antibody conjugated with Horse Radish Peroxidase (HRP) for 30 mins at 37° C. After washing, the plates were developed with TMB substrate and analyzed by spectrophotometer at OD 450 nm.

human PD-L1-Fc protein [11] = target: T1, human PD-L1-Fc protein; experiment: ELISA, antibody titrated on coated human PD-L1-Fc, OD 450nm; lower left panel (with Hu67F3G7-13 to -18); the table row is headed 'IC50' on the sheet although the curves rise
Method: as §2

T2 sequence (Q9NZQ7 19-238 limits assumed): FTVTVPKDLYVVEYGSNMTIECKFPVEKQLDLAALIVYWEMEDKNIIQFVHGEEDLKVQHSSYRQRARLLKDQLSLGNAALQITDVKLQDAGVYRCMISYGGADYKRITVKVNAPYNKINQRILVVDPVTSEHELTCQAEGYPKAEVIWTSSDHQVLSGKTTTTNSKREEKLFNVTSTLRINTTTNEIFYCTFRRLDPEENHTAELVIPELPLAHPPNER
T1 sequence (Q9NZQ7 19-238 limits assumed): as above
T3 sequence (Q9NZQ7 19-290): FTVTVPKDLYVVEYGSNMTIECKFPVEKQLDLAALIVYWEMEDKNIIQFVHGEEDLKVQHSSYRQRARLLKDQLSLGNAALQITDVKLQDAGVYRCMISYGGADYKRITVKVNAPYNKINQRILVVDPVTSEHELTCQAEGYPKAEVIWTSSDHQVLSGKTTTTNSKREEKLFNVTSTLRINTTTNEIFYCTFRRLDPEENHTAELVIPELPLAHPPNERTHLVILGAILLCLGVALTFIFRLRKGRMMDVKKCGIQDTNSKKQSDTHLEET

B1: 67F3G7 chimeric mAb (antibody, V domains shown)
VH: QVKLLQSGAALVKPGASVKMSCKASGYIFTDFWVSWVKQSHEKSLEWIGEIYPNSGVSRYNEKFKGRATMTVDKSTSTAYLELSRLTSEDSAIYYCTKYFGYTYWFGYWGQGTLVTVSS
VL: DTVLTQSPALAVSLGQRITISCRASKSVSTYMHWYQQRSGLQPKLLIYSASHLESGVPSRFSGSGSGTDFTLTIDPVEADDIANYYCQQSNELPVTFGSGTKLEIK
notes: chimeric mAb of the hybridoma clone; also called 67F3G7-chimera
IC50 (human PD-L1-Fc protein [1]): 0.136 µg/mL | IC50 (human PD-L1-Fc protein [2]): 0.293 µg/mL | IC50 (human PD-L1-Fc protein [3]): 0.14 µg/mL | Kd [4]: 0.0244 nM | koff [4]: 6.19e-05 s⁻¹ | kon [4]: 2.54e+06 M⁻¹ s⁻¹ | IC50 (human PD-L1-Fc protein [5]): 0.274 µg/mL | EC50 (human PD-L1-Fc protein [6]): 0.0147 µg/mL | EC50 [7]: 0.103 nM | IC50 (human PD-L1-Fc protein [8]): 0.141 µg/mL | EC50 [9]: 0.0577 nM | EC50 (human PD-L1-Fc protein [10]): 0.0108 µg/mL | EC50 (human PD-L1-Fc protein [11]): 0.0157 µg/mL

Reference: patent US20230287125A1 (LEPU BIOPHARMA, published 2023)
